Biological target: PYE-GFP (Arabidopsis) (UniProt Q9SN74)
Assay: FRET or BRET; FRET-APB (acceptor photobleaching) in nuclei of transiently transformed tobacco leaf epidermis cells; GFP donor, mCherry acceptor; ß-estradiol-induced; n = 15 nuclei; negative control donor only

UniProt Q9SN74, sequence (Q9SN74 whole entry): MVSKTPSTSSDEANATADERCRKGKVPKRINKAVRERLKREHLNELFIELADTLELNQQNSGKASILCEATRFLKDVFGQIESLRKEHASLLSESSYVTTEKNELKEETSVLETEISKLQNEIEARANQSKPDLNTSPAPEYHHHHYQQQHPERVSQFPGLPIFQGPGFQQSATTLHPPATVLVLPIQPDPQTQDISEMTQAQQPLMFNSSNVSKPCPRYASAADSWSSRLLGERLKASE

- FRET efficiency: 3.5%
Substance: OLV-mCherry (natural protein)
